Reference: article PMC11825280

Target: rVSV-EBOV/Mayinga GP (EBOV/H.sap-tc/COD/76/Yambuku-Mayinga), thermolysin-cleaved (Ebola virus (EBOV)) (UniProt Q05320)
Test: ELISA

Chain of rVSV-EBOV/Mayinga GP (EBOV/H.sap-tc/COD/76/Yambuku-Mayinga), thermolysin-cleaved (Ebola virus (EBOV)) (Q05320 33-676): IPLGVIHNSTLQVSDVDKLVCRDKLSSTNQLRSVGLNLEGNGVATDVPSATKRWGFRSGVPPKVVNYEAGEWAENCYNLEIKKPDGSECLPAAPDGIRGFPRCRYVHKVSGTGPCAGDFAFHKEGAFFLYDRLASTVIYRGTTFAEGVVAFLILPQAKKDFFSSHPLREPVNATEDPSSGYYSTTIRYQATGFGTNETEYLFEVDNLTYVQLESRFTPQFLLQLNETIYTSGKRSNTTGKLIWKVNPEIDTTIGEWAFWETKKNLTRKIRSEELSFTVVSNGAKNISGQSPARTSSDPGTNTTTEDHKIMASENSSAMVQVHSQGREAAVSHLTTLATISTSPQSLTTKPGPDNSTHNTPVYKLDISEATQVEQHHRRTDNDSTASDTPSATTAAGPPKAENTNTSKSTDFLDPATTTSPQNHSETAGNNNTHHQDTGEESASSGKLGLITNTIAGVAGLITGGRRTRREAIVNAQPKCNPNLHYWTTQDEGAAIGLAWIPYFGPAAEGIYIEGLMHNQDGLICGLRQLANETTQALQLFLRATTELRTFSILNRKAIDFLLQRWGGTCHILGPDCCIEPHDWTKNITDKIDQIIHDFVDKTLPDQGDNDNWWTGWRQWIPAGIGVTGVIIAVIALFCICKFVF

**Q.** For “soluble human NPC1 domain C (NPC1-C) (from UniProt O15118 23-1278) (domain or fragment)”, which binding AUC is on record?
**A.** 277
